On the set-up of data set [1]: species or system SD rats (Sprague-Dawley Rats). The settings on record: rat, in vivo. How it is done:
To SD rats (Sprague-Dawley Rats) weighing 140 to 200 grams and previously Ravonal anesthetized, technetium-99m-peptide-1 obtained in Example 6, technetium-99m-peptide-2, 3 and 4 obtained in Example 7, technetium-99m-peptide-5, 6, 7, 8, 9, 10, 11, 12, 13 and KYCAREPPTRTNAYWGQG (hereinafter referred to as "peptide-14") prepared according to the method of Example 6 were each administered to the tail vein in an amount of 35 MBq to 45 MBq. The animals were sacrificed 5, 30, 60 and 180 minutes later to determine distribution ratio of radioactivity in various organs using a single channel counter.

The nature of data set [2]: Time course of technetium-99m labeling yield in vitro (HPLC). The data set is classed as physicochemical. How it is done: To 40.3 μmol/300 μl of glucoheptanate was added 130 nmol/50 μl of stannous chloride and 1049 MBq of sodium pertechnetate, and the entire volume was adjusted to 1.3 ml. After stirring, the mixture was left to stand still for 30 minutes at room temperature and then the labeling purity of glucoheptanate was confirmed to be 95% or more by cellulose acetate membrane electrophoresis. 242 MBq/300 μl of the mixture was added to 0.46 μmol/300 μl of peptide-1 obtained in Example 1 and the reaction was completed in a hot water bath at 100° C. in 20 minutes to yield the target technetium-99m-peptide-1. After cooling at room temperature, the peptide was confirmed to have a labeling purity of 98.3% according to HPLC method.
After technetium-99m-peptide-1 obtained in Example 6 and technetium-99m-peptides-2 to 4 obtained by the same method as in Example 6 were left to stand still for 1, 3 and 6 hours, the time course changes of technetium-99m labeling yield of the peptides were studied using liquid chromatography (HPLC method) under the following conditions:
Column: Millipore puresil 5 μm C18 (4.6×150 mm),
Eluent A: 0.1% TFA/purified water,
Eluent B: 0.1% TFA/acetonitrile,
Concentration gradient: 0 min. (10% B)→5 mins. (10% B)→35 mins. (50% B)→45 mins. (75% B).

Data set [3] can be described thus: In vitro stability of technetium-99m labeled peptide in human plasma (HPLC). The data set is classed as in vitro ADME. How it is done: Technetium-99m-peptide-8 obtained in Example 8 was mixed with 10-fold equivalent of human plasma (ROCKLAND Inc.: STERILE PLASMA containing EDTA) and the mixture was incubated at 37° C. A mixture of technetium-99m-peptide-1 obtained in Example 6 was also prepared by the same method.
The mixture was filtered through a 0.2 μm membrane filter 5 minutes and 30 minutes after the mixing, and was subjected to HPLC analysis. In vitro stability was evaluated by comparing the pattern of HPLC with that of peptide-1 before the mixing procedure. The HPLC profiles of technetium-99m-peptide-1 and of each of the above technetium-99m-labeled peptides mixed with plasma at 4° C. at the 5 and 30 minute points and at 37° C. at the 5 and 30 minute points are shown in FIGS. 7, 8, 9, 10, 11, 12, 13, 14 and 15.

The target in data set [4] is T1, epitope VTSAPDTRPAPGST of mucin core protein conjugated to bovine serum albumin (BSA) (Homo sapiens, UniProt P15941).
T1 construct: made in house; host or cells: chemical peptide synthesis (no expression host)
The data set is classed as binding. How it is done:
The epitope VTSAPDTRPAPGST of mucin core protein, to which the conventional peptide YCAREPPTRTNAYWG is known to bind, was synthesized and further conjugated to bovine serum albumin (BSA). The conjugated peptide was used as an artificial antigen to measure antigen affinity of peptide-14 by radioimmunoassay (RIA). The assay will be described below in detail.
Each 200 μl of 10 μg/ml solution of the artificial antigen in 50 mmol sodium carbonate buffer of a pH of 9.5 was added to each of 2 ml tubes containing polystyrene beads of 6.35 mm in diameter. The tubes were stood still overnight at 4° C. Then, the inside of the tubes was washed three times by a washing agent of 0.05%(v/v) Tween 20 PBS (phosphate buffer saline, pH 7.5). In order to block the portions to which the artificial antigen is not bound of the surface of the polystyrene beads, 200 μl of 1% BSA-PBS was each added to each of the tubes. The tubes were stood still for 3 hours at room temperature. Then, the inside of the tubes was washed three times.
Peptide-14 was diluted to 500, 100, 50, 10, 5, 1, 0.5, 0.1 and 0.05 μg/ml with PBS containing 1% PRIONEX™ (an albumin substitute of Pentapharm, Ltd.). […] Each of the diluted peptide-containing solutions was added to each of the […] tubes, followed by adding thereto 100 μl of the previously-prepared antibody solution. The tubes were stood still for 3 hours. Then, the inside of the tubes was washed three times with the washing agent.
A sheep antimouse antibody labelled with iodine-125 (3.7 MBq/ml, made by Amersham Co.) was diluted 100-fold with 1% BSA-PBS. To each of the tubes, 200 μl of the diluted antimouse antibody was added. Then, the tubes were stood still for 2 hours at 37° C. Then, the inside of the tubes was washed three times with the washing agent, and radioactivity was measured by use of an auto well gammma ray counter.

Read-outs that look alike come from different tables or passages of the source. No end group written: not given here. Some results are limits rather than exact numbers.

Here are results for eight substances from patent US5827498A, “Tumor affinity peptide, and radioactive diagnostic agent and radioactive therapeutic agent containing the peptide” (Nihon Medi-Physics Co., Ltd., priority 1994, dated 1998).

Regarding KYCAD-REPPTD-RTFAYD-WGQG [peptide-10], the “radioactivity in liver and small intestines compared with peptides having corresponding L-Arg” value in data set [1] was “reduced percentages of radioactivity in liver and small intestines”.
As for KYCAD-REPPTD-RTFAYWGQG [peptide-9], the “radioactivity in liver and small intestines compared with peptides having corresponding L-Arg” value in data set [1] is “reduced percentages of radioactivity in liver and small intestines”.
Consider KYCAD-REPPTRTFAYWGQG [peptide-7], for which the “radioactivity in liver and small intestines compared with peptides having corresponding L-Arg” value in data set [1] was “reduced percentages of radioactivity in liver and small intestines”.
For KYCAREPPTRTFAYWGQG [peptide-1], the technetium-99m labeling yield was not below 98% in data set [2] (1 hr. standing after labeling); 98.3% in data set [2] (1 hr. standing after labeling, listed as Peptide-1); 97.2% in data set [2] (3 hr. standing after labeling); not below 96% in data set [2] (6 hr. standing after labeling); 96.6% in data set [2] (6 hr. standing after labeling, listed as Peptide-1). Besides, the “% of unidentified radioactive substance in plasma” value in data set [3] (5 mins. later/4° C.) came to 5.3%; in data set [3] (5 mins. later/37° C.), 12.4%; in data set [3] (30 mins. later/4° C.) it was 40.1%; in data set [3] (30 mins. later/37° C.), 59.4%.
“KYCAREPPTRTNAYWGQG [peptide-14, KYCAREPPTRTNAYWGQG]”: the binding percentage in data set [4] (5.0e-8 g/ml) is given as 29.517%; in data set [4] (1.0e-7 g/ml), 27.890%; in data set [4] (5.0e-7 g/ml) it was 42.941%; in data set [4] (1.0e-6 g/ml), 38.129%; in data set [4] (5.0e-6 g/ml), 50.293%; in data set [4] (1.0e-5 g/ml), 60.056%. For the same substance, the figures for the binding percentage in data set [4] (5.0e-5 g/ml), in data set [4] (1.0e-4 g/ml) and in data set [4] (5.0e-4 g/ml) were 60.869%, 58.585% and 63.669%, respectively.
“YCAREPPTRTFAYWG [peptide-3, peptide without N-terminal Lys, used for comparison]”: the technetium-99m labeling yield was 96.3% in data set [2] (1 hr. standing after labeling); “below 95%” in data set [2] (3 hr. standing after labeling); 88.9% in data set [2] (3 hr. standing after labeling, listed as Peptide-3); 84.4% in data set [2] (6 hr. standing after labeling).
On to YCAREPPTRTFAYWGQG [peptide-4], for which the technetium-99m labeling yield is recorded as 81.5% in data set [2] (1 hr. standing after labeling); “below 95%” in data set [2] (3 hr. standing after labeling); 81.2% in data set [2] (3 hr. standing after labeling, listed as Peptide-4); 79.9% in data set [2] (6 hr. standing after labeling).
As for “YCAREPPTRTNAYWG [peptide-2, conventional peptide without N-terminal Lys, used for comparison]”, the technetium-99m labeling yield in data set [2] (1 hr. standing after labeling) is listed as 85.5%; in data set [2] (3 hr. standing after labeling), “below 95%”; in data set [2] (3 hr. standing after labeling, listed as Peptide-2), 71.8%; in data set [2] (6 hr. standing after labeling) it was 78.5%.
